This is an account of results in patent publication US20110189205A1.

Assay [1] has as its target CGRP receptor on human MDA-MB-231BR breast cancer cells (human) (UniProt Q16602). Kind of assay: cell-based or functional assay.
For assay [2], the target named is CGRP receptor on rat CNS1 glioma cells (rat) (UniProt Q63118). In words: cell-based or functional assay.
Chain of CGRP receptor on rat CNS1 glioma cells (rat) (Q63118 24-464, chain 1 of 2): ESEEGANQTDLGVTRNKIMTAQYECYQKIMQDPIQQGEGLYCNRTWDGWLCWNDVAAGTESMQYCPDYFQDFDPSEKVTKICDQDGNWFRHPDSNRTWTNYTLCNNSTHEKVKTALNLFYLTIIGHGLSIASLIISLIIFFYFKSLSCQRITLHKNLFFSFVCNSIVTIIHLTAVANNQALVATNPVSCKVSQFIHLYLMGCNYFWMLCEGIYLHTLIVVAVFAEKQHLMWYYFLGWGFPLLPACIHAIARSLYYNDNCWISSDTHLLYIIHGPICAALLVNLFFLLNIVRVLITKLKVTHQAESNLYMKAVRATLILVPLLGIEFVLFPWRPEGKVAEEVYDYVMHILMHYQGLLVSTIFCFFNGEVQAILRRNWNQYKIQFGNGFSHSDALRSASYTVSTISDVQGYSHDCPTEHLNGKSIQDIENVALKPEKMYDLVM
Chain of CGRP receptor on rat CNS1 glioma cells (rat) (Q9JJ74 27-148, chain 2 of 2, further chain): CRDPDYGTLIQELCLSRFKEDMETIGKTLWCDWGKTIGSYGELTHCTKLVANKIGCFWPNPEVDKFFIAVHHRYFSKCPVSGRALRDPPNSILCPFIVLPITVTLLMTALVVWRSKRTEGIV

Chain of CGRP receptor on human MDA-MB-231BR breast cancer cells (human) (Q16602 23-461, chain 1 of 2): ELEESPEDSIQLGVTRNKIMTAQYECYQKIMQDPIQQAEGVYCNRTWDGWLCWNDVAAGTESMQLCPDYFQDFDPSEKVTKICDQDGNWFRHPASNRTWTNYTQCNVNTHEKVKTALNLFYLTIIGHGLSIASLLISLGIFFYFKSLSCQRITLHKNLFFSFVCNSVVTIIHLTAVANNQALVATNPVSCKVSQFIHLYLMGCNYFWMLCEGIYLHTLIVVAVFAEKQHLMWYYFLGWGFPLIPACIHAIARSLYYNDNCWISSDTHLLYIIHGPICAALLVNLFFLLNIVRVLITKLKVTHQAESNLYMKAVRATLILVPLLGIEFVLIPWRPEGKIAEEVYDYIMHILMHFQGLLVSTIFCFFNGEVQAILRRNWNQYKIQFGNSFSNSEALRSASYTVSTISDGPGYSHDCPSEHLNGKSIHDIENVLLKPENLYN
Chain of CGRP receptor on human MDA-MB-231BR breast cancer cells (human) (O60894 27-148, chain 2 of 2, further chain): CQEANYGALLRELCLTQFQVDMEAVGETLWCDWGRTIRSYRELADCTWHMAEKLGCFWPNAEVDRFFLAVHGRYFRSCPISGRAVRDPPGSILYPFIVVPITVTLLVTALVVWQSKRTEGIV

As for “calcitonin gene-related peptide (CGRP), unlabeled (from UniProt P01256 83-119)”, the MDA-MB-231BR cell growth over control, normoxic conditions, 4 days in culture in assay [1] was found to be 6 fold. Moreover, in assay [2], the CNS1 cell growth over control, normoxic conditions, 4 days in culture came to 4 fold; the CNS1 cell growth over control, normoxic conditions, 5 days in culture was found to be 11 fold; the CNS1 glioma growth over control, hypoxic conditions, 4 days in culture amounted to 72 fold; the CNS1 glioma growth over control, hypoxic conditions, 5 days in culture stood at 10 fold.
